Measured values taken from US7919262B2, “14-3-3 proteins for diagnosis of Parkinson's disease” (The UAB Research Foundation, priority 2007, dated 2011).

B1: 14-3-3ε: 14-3-3 polypeptide ε isoform, overexpressed from expression vector (protein, UniProt P62258 1-255, looked up)
14-3-3 protein epsilon: MDDREDLVYQAKLAEQAERYDEMVESMKKVAGMDVELTVEERNLLSVAYKNVIGARRASWRIISSIEQKEENKGGEDKLKMIREYRQMVETELKLICCDILDVLDKHLIPAANTGESKVFYYKMKGDYHRYLAEFATGNDRKEAAENSLVAYKAASDIAMTELPPTHPIRLGLALNFSVFYYEILNSPDRACRLAKAAFDDAIAELDTLSEESYKDSTLIMQLLRDNLTLWTSDMQGDGEEQNKEALQDVEDENQ
B2: 14-3-3θ: 14-3-3 polypeptide θ isoform, overexpressed from V5/His-tagged pcDNA3.1 vector (or as transgene in C. elegans) (protein, UniProt P27348 1-245, looked up)
14-3-3 protein theta: MEKTELIQKAKLAEQAERYDDMATCMKAVTEQGAELSNEERNLLSVAYKNVVGGRRSAWRVISSIEQKTDTSDKKLQLIKDYREKVESELRSICTTVLELLDKYLIANATNPESKVFYLKMKGDYFRYLAEVACGDDRKQTIDNSQGAYQEAFDISKKEMQPTHPIRLGLALNFSVFYYEILNNPELACTLAKTAFDEAIAELDTLNEDSYKDSTLIMQLLRDNLTLWTSDSAGEECDAAEGAEN
modifications: V5/His tag
B3: 14-3-3ζ: 14-3-3 polypeptide ζ isoform, overexpressed from expression vector (protein, UniProt P63104 1-245, looked up)
14-3-3 protein zeta/delta: MDKNELVQKAKLAEQAERYDDMAACMKSVTEQGAELSNEERNLLSVAYKNVVGARRSSWRVVSSIEQKTEGAEKKQQMAREYREKIETELRDICNDVLSLLEKFLIPNASQAESKVFYLKMKGDYYRYLAEVAAGDDKKGIVDQSQQAYQEAFEISKKEMQPTHPIRLGLALNFSVFYYEILNSPEKACSLAKTAFDEAIAELDTLSEESYKDSTLIMQLLRDNLTLWTSDTQGDEAEAGEGGEN

system: M17 cells; assay: MPP+ toxicity in stably transfected cell lines, LDH release; type: cell-based, human; details: stable overexpression; MPP+ 0-10 mM; 24 hours
Experimental: Cell lines stably-transfected with either a 14-3-3 isoform or empty vector were treated with varying concentrations of MPP+ for 24 hours. Cell death was assayed by LDH release into the culture media. LDH release into media was normalized to total LDH release for each well. Lines overexpressing 14-3-3θ (FIG. 9A), 14-3-3ε (FIG. 9B), or 14-3-3γ (FIG. 9C) were more resistant to MPP+ in a dose-dependent manner compared to control stable cells. […] Results reflect two to three independent experiments with at least two replicates per experiment. **p<0.01, ***p<0.001 (Bonferroni's multiple comparison test).
The 14-3-3 expressing M17 clones were also tested for resistance to the neurotoxin 1-methyl-4-phenylpyridinium ion (MPP+), which is a metalbolite of 1-methyl-4-phenyl-1,2,3,6-tetrahydropyridine (MPTP). M17 cells expressing the 14-3-3 isoforms were prepared as described. M17 cells were treated with MPP+ (0-10 mM) for 24 hours (FIGS. 9A-G). Cell death was assayed by LDH release into the culture media as described above.
Primers against each of the human 14-3-3 isoforms were designed using Primer3. Primers against 14-3-3β (NM_018753) were 5′ […] 3′ (forward; SEQ ID NO. 9) and 5′ […] 3′ (reverse; SEQ ID NO. 10). Primers against 14-3-3ε (NM_009536) were 5′ […] 3′ (forward; SEQ ID NO. 11) and 5′ […] 3′ (reverse; SEQ ID NO. 12). Primers against 14-3-3γ (NM_018871) were 5′ […] 3′ (forward; SEQ ID NO. 13) and 5′ […] 3′ (reverse; SEQ ID NO. 14). Primers against 14-3-3η (NM_011738) were 5′ […] 3′ (forward; SEQ ID NO. 15) and 5′ […] 3′ (reverse; SEQ ID NO. 16). Primers against 14-3-3θ (NM_011739) were 5′ […] 3′ (forward; SEQ ID NO. 17) and 5′ […] 3′ (reverse; SEQ ID NO. 18). Primers against 14-3-3σ (NM_018754) were 5′ […] 3′ (forward; SEQ ID NO. 19) and 5′ […] 3′ (reverse; SEQ ID NO. 20). Primers against 14-3-3ζ(NM_011740) were 5′ […] 3′ (forward; SEQ ID NO. 21) and 5′ […] 3′ (reverse; SEQ ID NO. 22). Primers against GAPDH were 5′ tggtgaagcaggeatctga 3′ (forward; SEQ ID NO. 23) and 5′ […] 3′ (reverse; SEQ ID NO. 24) and were used to normalize PCR results. • α-syn aggregation assay H4 cells were transfected with synphilin, α-syn/green fluorescent protein (synT), and either empty vector control or a 14-3-3 isoform using Superfect transfection reagent (Qiagen). 24 hours after transfection, cells were fixed with 4% paraformaldehyde and immunostained with a monoclonal antibody against α-syn (BD Transduction) and a secondary Alexa 488-conjugated goat anti-mouse antibody (Molecular Probes). All cells stained for α-syn were scored as positive or negative for α-syn aggregates, with the rater blind to experimental condition. • α-syn toxicity assay H4 cells were transfected with α-syn and either empty vector control or a 14-3-3 isoform using Superfect transfection reagent (Qiagen). 24 hours after transfection, toxicity was measured by the amount of adenylate kinase released into the media using the ToxiLight™ kit (Cambrex). • Creation of stable cell lines Each 14-3-3 isoform was subcloned into the mammalian expression vector mcDNA3.1/V5-His (Invitrogen). BE(2)-M17 cells were transfected with each isoform or empty vector using Superfect, and stably-transfected cells were selected for in the presence of G418. […] Protein concentrations of supernatants were determined by the bicinchoninic acid assay (BCA; Pierce, Rockford, Ill.). […]

Row | Molecule | protection against MPP+ toxicity (LDH release)
1 | 14-3-3γ: 14-3-3 polypeptide γ isoform, overexpressed from expression vector | reduced toxicity
2 | B1 | reduced toxicity
3 | B2 | reduced toxicity
4 | B3 | did not show any significant protection
